These results are taken from patent US20180346600.

Changes are numbered by the printed parent chain. Names and notes keep the numbering of the source.

Holding throughout (test): HEK293-F co-expression, Protein A purification, non-reducing SDS-PAGE densitometry
In series [1] the target is FcCH3B, A205 (E357N/K370R).
Series [2] addresses T1, FcCH3B, B215 (D399W/K392G/K409M).
T1 chain: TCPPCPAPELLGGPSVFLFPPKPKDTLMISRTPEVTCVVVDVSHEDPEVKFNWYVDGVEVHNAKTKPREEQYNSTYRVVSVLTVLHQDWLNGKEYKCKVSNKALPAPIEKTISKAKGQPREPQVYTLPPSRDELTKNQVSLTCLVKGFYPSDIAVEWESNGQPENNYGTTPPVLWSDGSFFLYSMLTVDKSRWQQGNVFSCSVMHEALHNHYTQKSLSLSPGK

For series [3], the target named is T2, FcCH3B, B240 (D399G/K392G/K409M).
T2 chain: T1 chain with W175G

For series [4], the target named is FcCH3B, A210 (E357N/K370H).
For another series, the target named is FcCH3B, A216 (E357N).
For a further series, the target named is FcCH3B, A241 (E357N).

B1: scFv-FcCH3A, A205 (E357D/S364W/K370E) (protein)
chain: T1 chain with E133D, S140W, K146E, G168K, W175D, M185K
In series [1], B1 displayed a (scFv-Fc)(Fc) (heterodimer)(%) of 88.8%.

B2: scFv-FcCH3A, B215 (K392R/K409R/D399L) (protein)
chain: T1 chain with G168R, W175L, M185R
Take B2: the (scFv-Fc)(Fc) (heterodimer)(%) in series [2] was 78.1%.

B3: scFv-FcCH3A, B240 (K392S/K409R/D399L) (protein)
chain: T1 chain with G168S, W175L, M185R
B3 came in with a (scFv-Fc)(Fc) (heterodimer)(%) in series [3] of 83.3%.

B4: scFv-FcCH3A, A210 (E357A/S364Y/K370E) (protein)
chain: T1 chain with E133A, S140Y, K146E, G168K, W175D, M185K
In the case of B4, the (scFv-Fc)(Fc) (heterodimer)(%) in series [4] turned out to be 80.8%.

B5: scFv-FcCH3A, A216 (E357G/S364W/K370E) (protein)
chain: T1 chain with E133G, S140W, K146E, G168K, W175D, M185K
In turn, B5 yielded a (scFv-Fc)(Fc) (heterodimer)(%) in the series with FcCH3B, A216 (E357N) of 80.3%.

B6: scFv-FcCH3A, A241 (E357N/S364W/K370E) (protein)
chain: T1 chain with E133N, S140W, K146E, G168K, W175D, M185K
For the protein B6, the (scFv-Fc)(Fc) (heterodimer)(%) with FcCH3B, A241 (E357N) is 81%.
